Values joined by “and” are separate entries in the source; they are usually repeats but may differ in a detail not shown here. Equal values may be shown once.
How the values were obtained:
[1] = biological target: T1, SA2 (STAG2), full length (human, UniProt Q8N3U4 1-1231); assay: AFM; conditions: Anisotropy: 20 mM Hepes pH 7.5, 0.1 mM MgCl2, 0.5 mM DTT, 100 mM KCl, 1 nM DNA, AFM: 20 mM Hepes pH 7.5, 100 mM KCl, 0.1 mM MgCl2, room temperature, 20 min
T1 sequence: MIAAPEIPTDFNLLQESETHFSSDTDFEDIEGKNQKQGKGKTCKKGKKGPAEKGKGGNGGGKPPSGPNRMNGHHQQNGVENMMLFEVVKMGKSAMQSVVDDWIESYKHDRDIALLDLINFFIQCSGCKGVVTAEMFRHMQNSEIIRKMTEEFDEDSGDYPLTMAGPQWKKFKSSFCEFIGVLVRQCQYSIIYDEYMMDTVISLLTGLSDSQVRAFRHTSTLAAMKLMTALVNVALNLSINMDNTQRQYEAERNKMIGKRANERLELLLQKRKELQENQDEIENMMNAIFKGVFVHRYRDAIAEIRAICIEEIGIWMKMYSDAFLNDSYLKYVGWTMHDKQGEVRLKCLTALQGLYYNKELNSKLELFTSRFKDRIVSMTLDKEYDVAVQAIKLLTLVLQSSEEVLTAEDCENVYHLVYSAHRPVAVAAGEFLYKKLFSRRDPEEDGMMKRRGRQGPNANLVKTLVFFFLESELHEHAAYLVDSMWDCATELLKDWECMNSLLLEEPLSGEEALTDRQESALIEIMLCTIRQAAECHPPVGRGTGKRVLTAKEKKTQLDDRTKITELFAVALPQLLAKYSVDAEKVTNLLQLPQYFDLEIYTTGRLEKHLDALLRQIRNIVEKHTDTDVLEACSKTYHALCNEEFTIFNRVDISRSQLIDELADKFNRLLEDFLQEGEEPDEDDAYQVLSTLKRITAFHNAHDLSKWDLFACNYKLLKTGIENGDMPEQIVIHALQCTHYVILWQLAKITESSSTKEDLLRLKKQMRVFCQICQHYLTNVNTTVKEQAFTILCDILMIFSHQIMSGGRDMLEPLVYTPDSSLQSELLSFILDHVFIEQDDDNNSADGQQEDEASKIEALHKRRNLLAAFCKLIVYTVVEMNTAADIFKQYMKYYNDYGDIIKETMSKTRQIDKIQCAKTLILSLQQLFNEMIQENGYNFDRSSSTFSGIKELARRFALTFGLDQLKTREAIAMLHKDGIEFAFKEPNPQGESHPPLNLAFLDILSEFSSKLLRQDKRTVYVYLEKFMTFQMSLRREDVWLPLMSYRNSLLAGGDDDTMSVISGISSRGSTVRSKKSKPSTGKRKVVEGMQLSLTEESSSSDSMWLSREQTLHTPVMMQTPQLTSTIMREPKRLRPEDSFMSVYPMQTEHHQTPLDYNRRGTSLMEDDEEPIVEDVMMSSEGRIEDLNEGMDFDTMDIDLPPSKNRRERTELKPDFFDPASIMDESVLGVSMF

[2] = biological target: T2, SA2 1-1051 (human, UniProt Q8N3U4 1-1051); assay: AFM; conditions: Anisotropy: 20 mM Hepes pH 7.5, 0.1 mM MgCl2, 0.5 mM DTT, 100 mM KCl, 1 nM DNA, AFM: 20 mM Hepes pH 7.5, 100 mM KCl, 0.1 mM MgCl2, room temperature, 20 min
T2 sequence: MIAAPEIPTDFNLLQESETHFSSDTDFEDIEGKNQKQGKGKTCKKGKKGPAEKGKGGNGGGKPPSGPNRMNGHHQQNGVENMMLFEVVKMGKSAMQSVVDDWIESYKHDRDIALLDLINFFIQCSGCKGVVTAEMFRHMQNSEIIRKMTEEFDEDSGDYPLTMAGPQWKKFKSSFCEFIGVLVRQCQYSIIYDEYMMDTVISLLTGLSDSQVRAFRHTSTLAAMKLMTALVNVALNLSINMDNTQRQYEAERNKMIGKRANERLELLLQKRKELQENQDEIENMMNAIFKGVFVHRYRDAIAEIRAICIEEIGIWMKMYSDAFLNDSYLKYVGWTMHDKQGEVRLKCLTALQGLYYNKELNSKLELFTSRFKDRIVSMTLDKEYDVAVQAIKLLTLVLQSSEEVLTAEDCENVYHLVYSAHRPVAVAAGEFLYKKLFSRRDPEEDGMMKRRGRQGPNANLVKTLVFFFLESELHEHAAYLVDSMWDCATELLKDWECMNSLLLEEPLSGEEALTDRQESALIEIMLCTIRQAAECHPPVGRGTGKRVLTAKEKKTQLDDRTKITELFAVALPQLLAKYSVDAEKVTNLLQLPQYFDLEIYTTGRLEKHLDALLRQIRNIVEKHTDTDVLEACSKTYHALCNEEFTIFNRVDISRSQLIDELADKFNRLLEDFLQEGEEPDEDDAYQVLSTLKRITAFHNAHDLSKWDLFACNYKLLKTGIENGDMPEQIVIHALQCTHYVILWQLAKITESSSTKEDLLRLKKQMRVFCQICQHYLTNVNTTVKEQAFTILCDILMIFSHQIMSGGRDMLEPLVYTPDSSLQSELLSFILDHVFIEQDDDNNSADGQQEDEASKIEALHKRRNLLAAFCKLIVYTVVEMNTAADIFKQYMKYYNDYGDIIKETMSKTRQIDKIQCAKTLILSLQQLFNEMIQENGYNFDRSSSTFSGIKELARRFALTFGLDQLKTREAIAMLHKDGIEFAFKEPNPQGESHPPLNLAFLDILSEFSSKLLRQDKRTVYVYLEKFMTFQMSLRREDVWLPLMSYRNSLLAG

[3] = biological target: T1, SA2 (STAG2), full length; assay: fluorescence anisotropy; conditions: Anisotropy: 20 mM Hepes pH 7.5, 0.1 mM MgCl2, 0.5 mM DTT, 100 mM KCl, 1 nM DNA; AFM: 20 mM Hepes pH 7.5, 100 mM KCl, 0.1 mM MgCl2, room temperature, 20 min
[4] = biological target: His-tagged full-length SA2 (amino acids 1-1231, 141 kDa) (human) (UniProt Q8N3U4); assay: single-molecule fluorescence imaging on DNA tightropes; QD-labeled His-SA2 on DNA tightropes (centromeric, telomeric, gapped) between silica beads, oblique angle TIRF, no buffer flow; encounters of SA2-QDs on DNA followed in kymographs
[5] = biological target: His-tagged full-length SA2 (amino acids 1-1231, 141 kDa) (human) (UniProt Q8N3U4); assay: AFM volume analysis; SA2 incubated with linear DNA substrates in 20 mM Hepes (pH 7.5), 100 mM KCl, 0.1 mM MgCl2 at room temperature for 20 min, deposited on mica; number of SA2 molecules in DNA-bound complexes from the AFM volume calibration curve
[6] = biological target: T1, SA2 (STAG2), full length; assay: fluorescence anisotropy; uncertain: low saturation; Anisotropy: 20 mM Hepes pH 7.5, 0.1 mM MgCl2, 0.5 mM DTT, 100 mM KCl, 1 nM DNA; AFM: 20 mM Hepes pH 7.5, 100 mM KCl, 0.1 mM MgCl2, room temperature, 20 min; conditions: protein: recombinant; tags: 6xHis; label: 5' Alexa 488
[7] = biological target: T1, SA2 (STAG2), full length; assay: fluorescence anisotropy; Anisotropy: 20 mM Hepes pH 7.5, 0.1 mM MgCl2, 0.5 mM DTT, 100 mM KCl, 1 nM DNA; AFM: 20 mM Hepes pH 7.5, 100 mM KCl, 0.1 mM MgCl2, room temperature, 20 min; conditions: protein: recombinant, tags: 6xHis
[8] = biological target: T2, SA2 1-1051; assay: as above; conditions: protein: recombinant; tags: 6xHis; label: Alexa 488; blunt
[9] = DNA ends vs internal, no centromere preference

Molecule: linear replication fork DNA (AFM)
- binding signal ([1]; replication fork vs internal): 3150 KSP/KNSP

Molecule: circular replication fork template
- binding signal ([1]; 55.6% of bound SA2 at fork junction): 26 % DNA bound

Molecule: linear single-stranded fork DNA (AFM)
- binding signal ([1]; fork vs internal): 2950 KSP/KNSP

Molecule: linear gapped DNA
- binding signal ([2]; DNA ends vs internal, substrate for end value inferred): 1690 KSP/KNSP
- binding signal ([2]; ssDNA gap vs internal): 1810 KSP/KNSP
- binding signal ([1]; ssDNA gap vs internal): 1990 KSP/KNSP

Molecule: linear flap DNA (AFM)
- binding signal ([1]; flap vs internal): 4260 KSP/KNSP

Molecule: Cen-mid DNA
- binding signal [1, 9]: 2130 KSP/KNSP

Molecule: ds66 telomeric
- Kd [3]: 88 nM

Molecule: Cen-end DNA
- binding signal [1, 9]: 2600 KSP/KNSP

Molecule: His-tagged full-length SA2 (amino acids 1-1231, 141 kDa) (from UniProt Q8N3U4 1-1231) (natural protein)
- percent of SA2-SA2 encounters on DNA that formed complexes [4]: 8%
- stoichiometry N (SA2 molecules) [5]: 5 and 4

Molecule: replication fork (anisotropy)
- Kd [3]: 133 nM

Molecule: TGTCGCATAGTGTAG (ssDNA) [ss15]
- Kd [6]: ~1000 nM

Molecule: TGTCGCATAGTGTAGTCGGTCTTGTTCGGTCATAGCTCATCGTGG (ssDNA) [ss45 (oligo 1)]
- Kd ([7]; label: 5' Alexa 488): 118 ± 5.3 nM

B1: ds45 (oligo 1 + oligo 2) (dsDNA)
DNA 1: TGTCGCATAGTGTAGTCGGTCTTGTTCGGTCATAGCTCATCGTGG
DNA 2: CCACGATGAGCTATGACCGAACAAGACCGACTACACTATGCGACA
- Kd ([7]; label: 5' Alexa 488 on strand 1, blunt): 175 ± 12.9 nM

Molecule: TGTCGCATAGTGTAGTCGGTCTTGT (ssDNA) [ss25]
- Kd [6]: ~445 nM

B2: ds66 non-telomeric (Alexa ss66 + ss66-com) (dsDNA)
DNA 1: CTGGATCCGTACAGTGTAAGGGTGAGTGGTTGGGTGTGTGGGTGTTGATGTAGAACAAGAATTCGA
DNA 2: TCGAATTCTTGTTCTACATCAACACCCACACACCCAACCACTCACCCTTACACTGTACGGATCCAG
- Kd [8]: 198 nM
- Kd ([7]; label: Alexa 488, blunt): 76.2 ± 3.9 nM
